Starred links: 1 amine or outer side, 2 acyl side, 3 side chain; linkers in the order of their positions; H or OH if unused. Non-standard residues stand in square brackets, D forms with d. *: point of attachment. AC4Abu = α-carboxy-4-aminobutyric acid, O=C(C(CCN[*:1])C(=O)[*:3])[*:2]; Oic = O=C(O)[C@@H]1C[C@@H]2CCCC[C@@H]2N1; Phe(4-Cl) = N[C@@H](Cc1ccc(Cl)cc1)C(=O)O; dPhe(4-I) = N[C@H](Cc1ccc(I)cc1)C(=O)O; γGlu = O=C(O)[C@H](CCC(=O)[*:2])N[*:1]; d2Nal = N[C@H](Cc1ccc2ccccc2c1)C(=O)O; dIgl = N[C@@H](C(=O)O)C1Cc2ccccc2C1; B4ClF = β-4-chloro-L-phenylalanine; Gly(cPent) = N[C@H](C(=O)O)C1CCCC1; NMeR = CN[C@@H](CCCNC(=N)N)C(=O)O; Tridecanoyl = CCCCCCCCCCCCC(=O)*; hArg = N=C(N)NCCCC[C@H](N)C(=O)O; Cha = N[C@@H](CC1CCCCC1)C(=O)O; αMeL = CC(C)C[C@](C)(N)C(=O)O; Aic = NC1(C(=O)O)Cc2ccccc2C1; Tle = CC(C)(C)[C@H](N)C(=O)O; Nle = CCCC[C@H](N)C(=O)O; Deg = CCC(N)(CC)C(=O)O; AEEA = NCCOCCOCC(=O)O

B1: Apelin polypeptide SEQ ID NO: 406 (peptide)
peptide: Tridecanoyl-[AC4Abu][AEEA][AEEA][dQ][hArg]P[dR][Cha]SHKG[Oic][Nle]P[Gly(cPent)]-OH
SMILES: CCCCCCCCCCCCC(=O)NCCC(C(=O)O)C(=O)NCCOCCOCC(=O)NCCOCCOCC(=O)N[C@H](CCC(N)=O)C(=O)N[C@@H](CCCCNC(=N)N)C(=O)N1CCC[C@H]1C(=O)N[C@H](CCCNC(=N)N)C(=O)N[C@@H](CC1CCCCC1)C(=O)N[C@@H](CO)C(=O)N[C@@H](Cc1c[nH]cn1)C(=O)N[C@@H](CCCCN)C(=O)NCC(=O)N1[C@H](C(=O)N[C@@H](CCCC)C(=O)N2CCC[C@H]2C(=O)N[C@H](C(=O)O)C2CCCC2)C[C@@H]2CCCC[C@@H]21
B2: Apelin polypeptide SEQ ID NO: 397 (peptide)
peptide: Tridecanoyl-[AC4Abu][AEEA][AEEA]Q[NMeR][αMeL]SHKG[Oic][Nle]P[Phe(4-Cl)]-OH
SMILES: CCCCCCCCCCCCC(=O)NCCC(C(=O)O)C(=O)NCCOCCOCC(=O)NCCOCCOCC(=O)N[C@@H](CCC(N)=O)C(=O)N(C)[C@@H](CCCNC(=N)N)C(=O)N[C@@](C)(CC(C)C)C(=O)N[C@@H](CO)C(=O)N[C@@H](Cc1c[nH]cn1)C(=O)N[C@@H](CCCCN)C(=O)NCC(=O)N1[C@H](C(=O)N[C@@H](CCCC)C(=O)N2CCC[C@H]2C(=O)N[C@@H](Cc2ccc(Cl)cc2)C(=O)O)C[C@@H]2CCCC[C@@H]21
B3: Apelin polypeptide SEQ ID NO: 434 (peptide)
peptide: Tridecanoyl-[γGlu][AEEA][AEEA][dQ][hArg]P[dR][Deg]SHKG[Oic][Nle]P[Phe(4-Cl)]-OH
SMILES: CCCCCCCCCCCCC(=O)N[C@@H](CCC(=O)NCCOCCOCC(=O)NCCOCCOCC(=O)N[C@H](CCC(N)=O)C(=O)N[C@@H](CCCCNC(=N)N)C(=O)N1CCC[C@H]1C(=O)N[C@H](CCCNC(=N)N)C(=O)NC(CC)(CC)C(=O)N[C@@H](CO)C(=O)N[C@@H](Cc1c[nH]cn1)C(=O)N[C@@H](CCCCN)C(=O)NCC(=O)N1[C@H](C(=O)N[C@@H](CCCC)C(=O)N2CCC[C@H]2C(=O)N[C@@H](Cc2ccc(Cl)cc2)C(=O)O)C[C@@H]2CCCC[C@@H]21)C(=O)O
B4: Apelin polypeptide SEQ ID NO: 596 (peptide)
peptide: Tridecanoyl-[γGlu][AEEA][AEEA][dQ][hArg]P[dR][Cha]SHKG[Oic][Nle][Oic]-OH
SMILES: CCCCCCCCCCCCC(=O)N[C@@H](CCC(=O)NCCOCCOCC(=O)NCCOCCOCC(=O)N[C@H](CCC(N)=O)C(=O)N[C@@H](CCCCNC(=N)N)C(=O)N1CCC[C@H]1C(=O)N[C@H](CCCNC(=N)N)C(=O)N[C@@H](CC1CCCCC1)C(=O)N[C@@H](CO)C(=O)N[C@@H](Cc1c[nH]cn1)C(=O)N[C@@H](CCCCN)C(=O)NCC(=O)N1[C@H](C(=O)N[C@@H](CCCC)C(=O)N2[C@H](C(=O)O)C[C@@H]3CCCC[C@@H]32)C[C@@H]2CCCC[C@@H]21)C(=O)O
B5: Apelin polypeptide SEQ ID NO: 595 (peptide)
peptide: Tridecanoyl-[γGlu][AEEA][AEEA][dQ][hArg]P[dR][Cha]SHKG[Oic][Nle][Aic]-OH
SMILES: CCCCCCCCCCCCC(=O)N[C@@H](CCC(=O)NCCOCCOCC(=O)NCCOCCOCC(=O)N[C@H](CCC(N)=O)C(=O)N[C@@H](CCCCNC(=N)N)C(=O)N1CCC[C@H]1C(=O)N[C@H](CCCNC(=N)N)C(=O)N[C@@H](CC1CCCCC1)C(=O)N[C@@H](CO)C(=O)N[C@@H](Cc1c[nH]cn1)C(=O)N[C@@H](CCCCN)C(=O)NCC(=O)N1[C@H](C(=O)N[C@@H](CCCC)C(=O)NC2(C(=O)O)Cc3ccccc3C2)C[C@@H]2CCCC[C@@H]21)C(=O)O
B6: Apelin polypeptide SEQ ID NO: 453 (peptide)
peptide: Tridecanoyl-[AC4Abu][AEEA][AEEA][dQ][hArg]P[dR][Cha]SHKG[Oic][Nle][dPhe(4-I)]-OH
SMILES: CCCCCCCCCCCCC(=O)NCCC(C(=O)O)C(=O)NCCOCCOCC(=O)NCCOCCOCC(=O)N[C@H](CCC(N)=O)C(=O)N[C@@H](CCCCNC(=N)N)C(=O)N1CCC[C@H]1C(=O)N[C@H](CCCNC(=N)N)C(=O)N[C@@H](CC1CCCCC1)C(=O)N[C@@H](CO)C(=O)N[C@@H](Cc1c[nH]cn1)C(=O)N[C@@H](CCCCN)C(=O)NCC(=O)N1[C@H](C(=O)N[C@@H](CCCC)C(=O)N[C@H](Cc2ccc(I)cc2)C(=O)O)C[C@@H]2CCCC[C@@H]21
B7: Apelin polypeptide SEQ ID NO: 433 (peptide)
peptide: Tridecanoyl-[γGlu][AEEA][AEEA][dQ][hArg]P[dR][Tle]SHKG[Oic][Nle]P[Phe(4-Cl)]-OH
SMILES: CCCCCCCCCCCCC(=O)N[C@@H](CCC(=O)NCCOCCOCC(=O)NCCOCCOCC(=O)N[C@H](CCC(N)=O)C(=O)N[C@@H](CCCCNC(=N)N)C(=O)N1CCC[C@H]1C(=O)N[C@H](CCCNC(=N)N)C(=O)N[C@H](C(=O)N[C@@H](CO)C(=O)N[C@@H](Cc1c[nH]cn1)C(=O)N[C@@H](CCCCN)C(=O)NCC(=O)N1[C@H](C(=O)N[C@@H](CCCC)C(=O)N2CCC[C@H]2C(=O)N[C@@H](Cc2ccc(Cl)cc2)C(=O)O)C[C@@H]2CCCC[C@@H]21)C(C)(C)C)C(=O)O
B8: Apelin polypeptide SEQ ID NO: 373 (peptide)
peptide: Tridecanoyl-[γGlu][AEEA][AEEA][dQ][hArg]P[dR][Cha]SYKG[Oic][Nle]P[Phe(4-Cl)]-OH
SMILES: CCCCCCCCCCCCC(=O)N[C@@H](CCC(=O)NCCOCCOCC(=O)NCCOCCOCC(=O)N[C@H](CCC(N)=O)C(=O)N[C@@H](CCCCNC(=N)N)C(=O)N1CCC[C@H]1C(=O)N[C@H](CCCNC(=N)N)C(=O)N[C@@H](CC1CCCCC1)C(=O)N[C@@H](CO)C(=O)N[C@@H](Cc1ccc(O)cc1)C(=O)N[C@@H](CCCCN)C(=O)NCC(=O)N1[C@H](C(=O)N[C@@H](CCCC)C(=O)N2CCC[C@H]2C(=O)N[C@@H](Cc2ccc(Cl)cc2)C(=O)O)C[C@@H]2CCCC[C@@H]21)C(=O)O
B9: Apelin polypeptide SEQ ID NO: 431 (peptide)
peptide: Tridecanoyl-[γGlu][AEEA][AEEA][dQ][hArg]P[dR][Cha]SHKG[Oic][Nle]P[dIgl]-OH
SMILES: CCCCCCCCCCCCC(=O)N[C@@H](CCC(=O)NCCOCCOCC(=O)NCCOCCOCC(=O)N[C@H](CCC(N)=O)C(=O)N[C@@H](CCCCNC(=N)N)C(=O)N1CCC[C@H]1C(=O)N[C@H](CCCNC(=N)N)C(=O)N[C@@H](CC1CCCCC1)C(=O)N[C@@H](CO)C(=O)N[C@@H](Cc1c[nH]cn1)C(=O)N[C@@H](CCCCN)C(=O)NCC(=O)N1[C@H](C(=O)N[C@@H](CCCC)C(=O)N2CCC[C@H]2C(=O)N[C@@H](C(=O)O)C2Cc3ccccc3C2)C[C@@H]2CCCC[C@@H]21)C(=O)O
B10: Apelin polypeptide SEQ ID NO: 407 (peptide)
peptide: Tridecanoyl-[AC4Abu][AEEA][AEEA][dQ][hArg]P[dR][Cha]SHKG[Oic][Nle]P[d2Nal]-OH
SMILES: CCCCCCCCCCCCC(=O)NCCC(C(=O)O)C(=O)NCCOCCOCC(=O)NCCOCCOCC(=O)N[C@H](CCC(N)=O)C(=O)N[C@@H](CCCCNC(=N)N)C(=O)N1CCC[C@H]1C(=O)N[C@H](CCCNC(=N)N)C(=O)N[C@@H](CC1CCCCC1)C(=O)N[C@@H](CO)C(=O)N[C@@H](Cc1c[nH]cn1)C(=O)N[C@@H](CCCCN)C(=O)NCC(=O)N1[C@H](C(=O)N[C@@H](CCCC)C(=O)N2CCC[C@H]2C(=O)N[C@H](Cc2ccc3ccccc3c2)C(=O)O)C[C@@H]2CCCC[C@@H]21

The first experiment concerns the target T1, rat APJ receptor (rat, UniProt Q9JHG3 1-377).
T1 sequence (looked up): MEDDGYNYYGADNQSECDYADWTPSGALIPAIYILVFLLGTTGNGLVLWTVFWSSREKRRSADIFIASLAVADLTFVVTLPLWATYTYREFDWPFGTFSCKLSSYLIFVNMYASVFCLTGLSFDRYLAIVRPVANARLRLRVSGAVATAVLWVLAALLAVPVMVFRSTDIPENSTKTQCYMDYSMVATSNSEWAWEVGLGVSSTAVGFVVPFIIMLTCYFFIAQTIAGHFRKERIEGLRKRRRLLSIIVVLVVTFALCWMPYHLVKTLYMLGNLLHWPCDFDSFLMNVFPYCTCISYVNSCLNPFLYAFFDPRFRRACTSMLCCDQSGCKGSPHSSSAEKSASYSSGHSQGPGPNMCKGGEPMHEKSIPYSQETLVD
Description: cell-based or functional assay.
As to B1, the “EC50 Rat APJ Receptor (GTPγS assay)” value is 73 nM.

As for B2, the “EC50 Rat APJ Receptor (GTPγS assay)” value was determined as 16.5 nM.

On to B3, for which the “EC50 Rat APJ Receptor (GTPγS assay)” value is 11.4 nM.

In the case of B4, the “EC50 Rat APJ Receptor (GTPγS assay)” value is 33.9 nM.

Consider B5, for which the “EC50 Rat APJ Receptor (GTPγS assay)” value came out at 54.8 nM.

Turning to B6, the “EC50 Rat APJ Receptor (GTPγS assay)” value stood at 20.8 nM.

B7: the “EC50 Rat APJ Receptor (GTPγS assay)” value came to 19.8 nM.

In the case of B8, the “EC50 Rat APJ Receptor (GTPγS assay)” value was 3.31 nM.

In the case of B9, the “EC50 Rat APJ Receptor (GTPγS assay)” value turned out to be 25 nM.

As to Tridecanoyl-[γGlu][AEEA][AEEA][dQ][hArg]P[dR][Cha]SHKG[Oic][Nle]P[B4ClF]-OH [Apelin polypeptide SEQ ID NO: 432], the “EC50 Rat APJ Receptor (GTPγS assay)” value worked out at 16.2 nM.

For B10, the “EC50 Rat APJ Receptor (GTPγS assay)” value worked out at 216 nM.

The target of a further experiment is T2, human APJ receptor (human, UniProt P35414 1-380).
T2 sequence (looked up): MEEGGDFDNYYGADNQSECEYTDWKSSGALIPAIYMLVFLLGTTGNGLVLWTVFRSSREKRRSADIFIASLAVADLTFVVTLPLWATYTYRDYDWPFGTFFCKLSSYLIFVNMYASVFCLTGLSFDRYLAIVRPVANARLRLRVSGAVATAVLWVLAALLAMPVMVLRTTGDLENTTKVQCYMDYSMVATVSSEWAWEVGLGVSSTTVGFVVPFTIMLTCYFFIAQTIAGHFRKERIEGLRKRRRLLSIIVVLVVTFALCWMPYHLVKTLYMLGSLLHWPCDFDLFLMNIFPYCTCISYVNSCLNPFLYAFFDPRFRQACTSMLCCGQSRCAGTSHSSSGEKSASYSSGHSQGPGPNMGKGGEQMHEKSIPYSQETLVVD
The experiment can be described thus: cell-based or functional assay.
Consider B1, for which the “EC50 Human APJ Receptor (GTPγS assay)” value amounted to 33.6 nM.

On to B2, for which the “EC50 Human APJ Receptor (GTPγS assay)” value was found to be 6.36 nM.

On to B3, for which the “EC50 Human APJ Receptor (GTPγS assay)” value came out at 11 nM.

With B4, the “EC50 Human APJ Receptor (GTPγS assay)” value turned out to be 5.13 nM.

For B5, the “EC50 Human APJ Receptor (GTPγS assay)” value worked out at 50 nM.

For B6, the “EC50 Human APJ Receptor (GTPγS assay)” value was 19 nM.

Consider B7, for which the “EC50 Human APJ Receptor (GTPγS assay)” value worked out at 12.8 nM.

B8: the “EC50 Human APJ Receptor (GTPγS assay)” value was determined as 2.81 nM.

B9: the “EC50 Human APJ Receptor (GTPγS assay)” value amounted to 31.2 nM.

Consider Tridecanoyl-[γGlu][AEEA][AEEA][dQ][hArg]P[dR][Cha]SHKG[Oic][Nle]P[B4ClF]-OH [Apelin polypeptide SEQ ID NO: 432], for which the “EC50 Human APJ Receptor (GTPγS assay)” value stood at 11.1 nM.

In the case of B10, the “EC50 Human APJ Receptor (GTPγS assay)” value came out at 124 nM.

The values are drawn from patent US10941182 (Amgen, dated 2021).
